In patent US20220403048A1 (CANCER RESEARCH TECHNOLOGY, published 2022):
Residue numbers refer to the chain shown, from its start. Read-outs that look alike come from different tables or passages of the source. One block for each binder: values may come before it.

What was measured:
[1] = target: T1, biotinylated recombinant human trimeric ARG2 enzyme (Avi-huARG2-His10) (human, UniProt P78540 23-354, biotinylated); assay: BLI (OctetRED) extended assay, bio-ARG2 on streptavidin, Fab as analyte, 1:1 fit
T1 construct: also called avi-Arg2-His10; bio-ARG2
T1 chain: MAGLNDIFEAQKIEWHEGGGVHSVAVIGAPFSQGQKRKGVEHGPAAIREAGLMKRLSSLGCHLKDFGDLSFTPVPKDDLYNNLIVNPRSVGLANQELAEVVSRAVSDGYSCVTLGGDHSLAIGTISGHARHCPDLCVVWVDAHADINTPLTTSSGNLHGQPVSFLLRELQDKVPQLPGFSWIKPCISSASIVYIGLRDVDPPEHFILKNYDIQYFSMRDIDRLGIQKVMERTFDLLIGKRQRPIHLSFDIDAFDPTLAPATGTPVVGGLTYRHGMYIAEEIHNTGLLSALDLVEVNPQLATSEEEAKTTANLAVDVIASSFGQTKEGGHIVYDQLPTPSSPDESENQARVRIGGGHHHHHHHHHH
Protocol: (§1) The affinities of the second-generation antibodies to human ARG2 were measured on the OctetRED system. A screening assay which stably captures His-tagged ARG2 as the ligand on an anti-His surface was utilised to screen the second-generation candidates as Fabs at an analyte range of 1.8 to 120 nM, with an association time of 5 minutes and a dissociation time of 10 minutes. Sensors were regenerated using 10 mM glycine pH 1.5 after each cycle. Based on this assay, six candidates with estimated affinities in the sub-nanomolar range were identified, and they were further profiled using an extended assay which is more suitable for antibodies of high affinities. In the extended assay, the association and dissociation times were extended to 10 and 40 minutes respectively, using a lower Fab analyte titration range of 0.47 to 30 nM, on a streptavidin surface which captures bio-ARG2 as the ligand. The sensorgrams were reference subtracted and fitted to the 1:1 binding model to estimate their binding affinities using the Octet analysis software.

[2] = target: T2, biotinylated recombinant cynomolgus monkey trimeric ARG2 enzyme (Avi-cynoARG2-His10) (cynomolgus monkey, UniProt P78540 23-354 (human entry), biotinylated); assay: BLI (OctetRED) extended assay, biotinylated cyno ARG2 on streptavidin, Fab as analyte, 1:1 fit
T2 construct: also called cynomolgus ARG2
T2 chain: T1 chain with A189P, R231Q, H273E, K325R, D333G
Protocol: as §1
The affinities of some of these antibodies to cynomolgus ARG2 were determined using the same assay, and the derived kinetic parameters are shown in Table 21.

[3] = target: T3, biotinylated recombinant human trimeric ARG1 enzyme (Avi-huARG1-His10) (human, UniProt P05089 1-322, biotinylated in HTRF and streptavidin BLI assays); assay: BLI (OctetRED), His-tagged ligand on anti-His surface
T3 construct: also called Human ARG1; recombinant ARG1
T3 sequence: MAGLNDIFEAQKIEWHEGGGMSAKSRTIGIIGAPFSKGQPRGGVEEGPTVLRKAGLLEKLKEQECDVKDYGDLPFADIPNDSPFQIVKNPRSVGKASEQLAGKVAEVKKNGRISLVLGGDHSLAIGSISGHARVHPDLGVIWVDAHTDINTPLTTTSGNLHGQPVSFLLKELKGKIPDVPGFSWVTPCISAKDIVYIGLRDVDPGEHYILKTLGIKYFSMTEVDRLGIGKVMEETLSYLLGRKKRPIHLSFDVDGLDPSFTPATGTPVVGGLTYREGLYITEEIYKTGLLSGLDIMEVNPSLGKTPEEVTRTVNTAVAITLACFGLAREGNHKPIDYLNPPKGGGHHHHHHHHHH

[4] = target: T2, biotinylated recombinant cynomolgus …; assay: BLI (OctetRED), biotinylated cyno ARG2 on streptavidin, Fab as analyte
Protocol: (§2) An Octet Kinetics Buffer (PBS containing 0.01% BSA and 0.002% Tween20) is typically used as the diluent buffer for the analyte samples and as the flow buffer during the dissociation phase. The experimental data is recorded over time as shift in interference pattern (nm) over time, which is directly proportional to the optical thickness at the biosensor tip, which in turn is an approximate measure of the mass of analyte bound. The proprietary Octet Data Analysis software package can then be used to process data and fit binding models to the data sets. Returned association (kₐ, M⁻¹ s⁻¹) and dissociation (kd, s⁻¹) rate constants allow calculation of dissociation (KD, M) affinity constants.
(§3) Typically, an analyte titration range of 1.8 to 120 nM was used.

[5] = target: T1, biotinylated recombinant human trimeric …; assay: BLI (OctetRED), biotinylated ARG2 on streptavidin, Fab as analyte
Protocol: as §2, §3

[6] = target: T3, biotinylated recombinant human trimeric …; assay: BLI (OctetRED), His-tagged ligand on anti-His surface; remark: listed apart in the source
Protocol: The binding of affinity-matured antibodies to human ARG1 was also tested on the OctetRED system using a screening assay which stably captures […] as the ligand on an anti-His surface. The Fabs were typically tested in an analyte range of 1.8 to 120 nM, with an association time of 5 minutes and a dissociation time of 10 minutes. Sensors were regenerated using 10 mM glycine pH 1.5 after each cycle.

Kd [1]: 0.173 nM
koff [1]: 3.51e-05 s⁻¹
kon [1]: 202000 M⁻¹ s⁻¹
Kd [2]: 0.0754 nM
koff [2]: 3.12e-05 s⁻¹
kon [2]: 414000 M⁻¹ s⁻¹
binding result [3]: no binding (tested: up to 120 nM Fab)
B1: C0021177 Fab (Fab, V domains shown)
VH: EVQLLESGGGLVQPGGSLRLSCAASGFTFRYEVAAWVRQAPGKGLEWVSAISGPAPKGYYADSVKGRFTISRDNSKNTLYLQMNSLRAEDTAVYYCARLRADLGLYMDLWGRGTLVTVSS
VL: QSELTQPPTASAAPGQKVTISCSGSSSNIGNHYVSWYQQLPGTAPKLLIYDTTVLSSGIPDRFSGSKSGTSATLGITGLQTGDEADYYCGTWDELTSNLVFGGGTKLTVL
notes: Human Fab

Kd [4]: 0.953 nM
koff [4]: 0.000296 s⁻¹
kon [4]: 310000 M⁻¹ s⁻¹
Kd [5]: 1.3 nM
koff [5]: 0.000351 s⁻¹
kon [5]: 271000 M⁻¹ s⁻¹
binding result [6]: no binding (tested: 1.8 to 120 nM Fab)
B2: C0021061 Fab (Fab, V domains shown)
VH: EVQLLESGGGLVQPGGSLRLSCAASGFTFSSYAMSWVRQAPGKGLEWVSAKPTDAGSTYYADSVKGRFTISRDNSKNTLYLQMNSLRAEDTAVYYCARLRADLGLYMDLWGRGTLVTVSS
VL: QSVLTQPPSVSAAPGQKVTISCSGSSSNIGNHYVSWYQQLPGTAPKLLIYNTVYPKSGIPDRFSGSKSGTSATLGITGLQTGDEADYYCGTWDSSLSALVFGGGTKLTVL
notes: Human Fab

Kd [4]: 1.66 nM
koff [4]: 0.00117 s⁻¹
kon [4]: 706000 M⁻¹ s⁻¹
Kd [5]: 2.73 nM
koff [5]: 0.00112 s⁻¹
kon [5]: 412000 M⁻¹ s⁻¹
binding result [6]: no binding (tested: 1.8 to 120 nM Fab)
B3: C0021022 Fab (Fab, V domains shown)
VH: EVQLLESGGGLVQPGGSLRLSCAASGFTFSSYAMSWVRQAPGKGPEWVSAISGFSPYYADSVKGRFTISRDNSKNTLYLQMNSLRAEDTAVYYCARLRADLGLYMDLWGRGTLVTVSS
VL: B2 VL with N51D, T52N, V53S, Y54E, P55R, K56P
notes: Human Fab

Kd [4]: 2.63 nM
koff [4]: 0.000724 s⁻¹
kon [4]: 275000 M⁻¹ s⁻¹
Kd [5]: 4.41 nM
koff [5]: 0.000871 s⁻¹
kon [5]: 198000 M⁻¹ s⁻¹
binding result [6]: no binding (tested: 1.8 to 120 nM Fab)
B4: C0021139 Fab (Fab, V domains shown)
VH: B1 VH with R30Q, E32D, V33Y, A34Q, A35V, P54S, A55G, P56G, K57S, G58T
VL: B1 VL with E3V, T9S, A10V, T52N, T53S, V54E, L55R, S56T
notes: Human Fab; also called LO C0021139 Fab

Kd [4]: 1.77 nM
koff [4]: 0.000771 s⁻¹
kon [4]: 437000 M⁻¹ s⁻¹
Kd [5]: 2.53 nM
koff [5]: 0.000674 s⁻¹
kon [5]: 266000 M⁻¹ s⁻¹
binding result [6]: no binding (tested: 1.8 to 120 nM Fab)
B5: C0021128 Fab (Fab, V domains shown)
VH: B1 VH with R30Q, A55I
VL: B2 VL with N51D, T52N, V53A, Y54I, P55E, K56S, E84G, S95N
notes: Human Fab

Kd [1]: 0.288 nM
koff [1]: 4.17e-05 s⁻¹
kon [1]: 145000 M⁻¹ s⁻¹
Kd [2]: 0.173 nM
koff [2]: 4.43e-05 s⁻¹
kon [2]: 257000 M⁻¹ s⁻¹
binding result [3]: no binding (tested: up to 120 nM Fab)
B6: C0021181 Fab (Fab, V domains shown)
VH: EVQLLESGGGLVRPGGSLRLSCAASEFTFRYDYHVWVRQAPGKGLEWVSAISGSGGSTYYADSVKSRFTISRDNSKNTLYLQMNSLRAEDTAVYYCARLRADLGLYMDLWGRGTLVTVSS
VL: QSVLTQPPSVSAAPGQKVAVSCSGSSSNIGSHYVSWYQQLPGTAPKLLIYDNSERTSGIPDRFSGSKSGTSATLGITGLQTGDEADYYCGTWDELTSNLVFGGGTRLTVL
notes: Human Fab

Kd [4]: 1.67 nM
koff [4]: 0.000549 s⁻¹
kon [4]: 328000 M⁻¹ s⁻¹
Kd [5]: 2.05 nM
koff [5]: 0.000449 s⁻¹
kon [5]: 219000 M⁻¹ s⁻¹
binding result [6]: no binding (tested: 1.8 to 120 nM Fab)
B7: C0021133 Fab (Fab, V domains shown)
VH: B6 VH with R13Q, E26G, Y33H, S66G
VL: B1 VL with E3V, T9S, A10V, I20V
notes: Human Fab

Kd [1]: 0.173 nM
koff [1]: 4.54e-05 s⁻¹
kon [1]: 262000 M⁻¹ s⁻¹
Kd [2]: 0.108 nM
koff [2]: 4.64e-05 s⁻¹
kon [2]: 429000 M⁻¹ s⁻¹
binding result [3]: no binding (tested: up to 120 nM Fab)
B8: C0021158 Fab (Fab, V domains shown)
VH: B1 VH with A55I
VL: B6 VL with A19T, V20I, S31N, S57A, I59V, R106K
notes: Human Fab

Kd [4]: 1.27 nM
koff [4]: 0.000782 s⁻¹
kon [4]: 617000 M⁻¹ s⁻¹
Kd [5]: 1.62 nM
koff [5]: 0.000665 s⁻¹
kon [5]: 409000 M⁻¹ s⁻¹
binding result [6]: no binding (tested: 1.8 to 120 nM Fab)
B9: C0021065 Fab (Fab, V domains shown)
VH: B3 VH with K74R
VL: B2 VL with N51D, V53D, Y54H, P55M, K56A
notes: Human Fab

Kd [1]: 0.338 nM
koff [1]: 6.59e-05 s⁻¹
kon [1]: 195000 M⁻¹ s⁻¹
binding result [3]: no binding (tested: up to 120 nM Fab)
B10: C0021144 Fab (Fab, V domains shown)
VH: B6 VH with R13Q, E26G, S66G
VL: B1 VL with E3V, T9S, A10V, I20V, Y33H, I59V
notes: Human Fab

Kd [1]: 0.358 nM
koff [1]: 5.67e-05 s⁻¹
kon [1]: 159000 M⁻¹ s⁻¹
binding result [3]: no binding (tested: up to 120 nM Fab)
B11: C0021155 Fab (Fab, V domains shown)
VH: B6 VH with R13Q, A23E, E26G, S63P, S66G
VL: B1 VL with Q1R, E3V, T9S, A10V, K106R
notes: Human Fab

Kd [4]: 2.05 nM
koff [4]: 0.000726 s⁻¹
kon [4]: 354000 M⁻¹ s⁻¹
Kd [5]: 2.69 nM
koff [5]: 0.000755 s⁻¹
kon [5]: 280000 M⁻¹ s⁻¹
binding result [6]: no binding (tested: 1.8 to 120 nM Fab)
B12: C0021092 Fab (Fab, V domains shown)
VH: B2 VH with S31R, K51H, P52T, T53H, D54S, A55P
VL: B2 VL with T52S, Y54A, P55R, K56P
notes: Human Fab
